Results as given in US20210095300, “INTERFERING WITH HD-ZIP TRANSCRIPTION FACTOR REPRESSION OF GENE EXPRESSION TO PRODUCE PLANTS WITH ENHANCED TRAITS” (Monsanto Technology LLC, published 2021).
Substitutions are numbered along the chain they refer to.

Columns and labels:
ATHB17Δ113 [1] = target: T1, ATHB17Δ113 (Arabidopsis thaliana, UniProt Q8S9N6 SEQ:1-162); experiment: SPR; random DNA did not interact with any protein tested; details: chain copies: 2 (homodimer, inferred)
T1 chain: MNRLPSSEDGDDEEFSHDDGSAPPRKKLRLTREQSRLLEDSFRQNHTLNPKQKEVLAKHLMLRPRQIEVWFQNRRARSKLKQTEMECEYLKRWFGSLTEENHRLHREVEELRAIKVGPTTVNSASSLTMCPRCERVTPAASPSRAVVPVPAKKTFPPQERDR
From the text: (§1) HD-Zip I and II proteins bind to similar cis elements (CAAT(N)ATTG) under in vitro conditions (Sessa et al., EMBO J 12:3507-3517, 1993); Meijer et al., Mol Gen Genet 263:12-21, 2000); Frank et al., Plant J Cell Molec Biol 15:413-421, 1998); Deng et al., Plant Mol Biol 49:601-610, 2002). HD-Zip II members bind preferentially to the pseudo-palindromic sequence CAAT(C/G)ATTG (SEQ ID NO:55) (Sessa et al., EMBO J 12:3507-3517, 1993), whereas members of the HD-Zip I subfamily bind preferentially to a pseudo-palindromic sequence that differs from that of HD-Zip II at the central nucleotide (CAAT(A/T)ATTG) (SEQ ID NO:56) (Ariel et al., Trends Plant Sci 12:419-426, 2007). The DNA-binding properties of ATHB17Δ113 was tested in vitro using a surface plasmon resonance (SPR) assay for both class I and class II recognition sequences. The oligonucleotides used in this assay were […] (Class II), […] (Class I), and […] (non consensus), where the pseudo-palindromic sequences flanked by four nucleotides at the 5′ end and 3′end of the oligo are underlined.
(§2) ATHB17 amino acid substitutions and domain deletions were generated by comparing the ATHB17 protein sequence with those of mammalian HD and other plant HD-Zip transcription factors. These variants were evaluated for their DNA binding properties using SPR on Biacore 2000 as described in Example 2.

ATHB17Δ113-Δ194-224 [2] = target: T2, ATHB17Δ113-Δ194-224 (Arabidopsis thaliana); experiment: SPR; random DNA
T2 chain: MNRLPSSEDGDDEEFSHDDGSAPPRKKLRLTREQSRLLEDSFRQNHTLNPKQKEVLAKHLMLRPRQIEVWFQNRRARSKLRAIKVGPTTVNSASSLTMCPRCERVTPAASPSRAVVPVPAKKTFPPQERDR
From the text: as §1, §2

ATHB17Δ113-C243S-C246S [3] = target: T3, ATHB17Δ113-C243S-C246S (Arabidopsis thaliana, UniProt Q8S9N6 SEQ:1-162); experiment: SPR; random DNA; details: chain copies: 2 (homodimer, inferred)
T3 chain: T1 chain with C130S, C133S
From the text: as §1, §2

ATHB17Δ113-C243S [4] = target: T4, ATHB17Δ113-C243S (Arabidopsis thaliana, UniProt Q8S9N6 SEQ:1-162); experiment: SPR; random DNA; details: chain copies: 2 (homodimer, inferred)
T4 chain: T1 chain with C130S
From the text: as §1, §2

ATHB17Δ113-Δ138-195 [5] = target: T5, ATHB17Δ113-Δ138-195 (Arabidopsis thaliana); experiment: SPR; random DNA
T5 chain: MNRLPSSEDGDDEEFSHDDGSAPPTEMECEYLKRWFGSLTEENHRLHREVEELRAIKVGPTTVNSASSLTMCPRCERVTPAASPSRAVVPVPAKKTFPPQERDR
From the text: as §1, §2

ATHB17Δ113-C246S [6] = target: T6, ATHB17Δ113-C246S (Arabidopsis thaliana, UniProt Q8S9N6 SEQ:1-162); experiment: SPR; random DNA; details: chain copies: 2 (homodimer, inferred)
T6 chain: T1 chain with C133S
From the text: as §1, §2

ATHB17Δ113-W183F [7] = target: T7, ATHB17Δ113-W183F (Arabidopsis thaliana, UniProt Q8S9N6 SEQ:1-162); experiment: SPR; random DNA; details: chain copies: 2 (homodimer, inferred)
T7 chain: T1 chain with W70F
From the text: as §1, §2

[8] = target: T8, ATHB17Δ113-C200A-C243S-C246S (Arabidopsis thaliana, UniProt Q8S9N6 SEQ:1-162); experiment: SPR; random DNA
T8 chain: T1 chain with C87A, C130S, C133S
From the text: as §1, §2

[9] = target: T9, ATHB17Δ113-V182A-Q185A-N186A (Arabidopsis thaliana, UniProt Q8S9N6 SEQ:1-162); experiment: SPR; random DNA
T9 chain: T1 chain with V69A, Q72A, N73A
From the text: as §1, §2

[10] = target: T10, ATHB17Δ113-T196A-L203A-L210A-L217A-L224A (Arabidopsis thaliana, UniProt Q8S9N6 SEQ:1-162); experiment: SPR; random DNA
T10 chain: T1 chain with T83A, L90A, L97A, L104A, L111A
From the text: as §1, §2

ATHB17Δ113-F155L [11] = target: T11, ATHB17Δ113-F155L (Arabidopsis thaliana, UniProt Q8S9N6 SEQ:1-162); experiment: SPR; random DNA; details: chain copies: 2 (homodimer, inferred)
T11 chain: T1 chain with W70F
From the text: as §1, §2

ATHB17Δ113-W183F [12] = target: T7, ATHB17Δ113-W183F; experiment: SPR; asterisked in table; text says 11 uM, significantly reduced but not completely suppressed; details: chain copies: 2 (homodimer, inferred)
From the text: as §1, §2

[13] = target: T9, ATHB17Δ113-V182A-Q185A-N186A; experiment: SPR; no binding within the concentration range used
From the text: as §1, §2

ATHB17Δ113-Δ138-195 [14] = target: T5, ATHB17Δ113-Δ138-195; experiment: SPR; homeodomain deletion
From the text: as §1, §2

ATHB17Δ113 [15] = target: T1, ATHB17Δ113; experiment: SPR; Biacore 2000; kon 42.3e5, koff 880.6e-4; details: chain copies: 2 (homodimer, inferred)
From the text: as §1, §2

ATHB17Δ113-R190K [16] = target: T12, ATHB17Δ113-R190K (Arabidopsis thaliana, UniProt Q8S9N6 SEQ:1-162, R190K (full-length numbering)); experiment: SPR; reduced affinity to BS2; details: chain copies: 2 (homodimer, inferred)
T12 sequence: T1 chain with R77K

ATHB17Δ113-Δ194-224 [17] = target: T2, ATHB17Δ113-Δ194-224; experiment: SPR; leucine zipper deletion
From the text: as §1, §2

ATHB17Δ113-C243S-C246S [18] = target: T3, ATHB17Δ113-C243S-C246S; experiment: SPR; details: chain copies: 2 (homodimer, inferred)
From the text: as §1, §2

ATHB17Δ113-C243S [19] = target: T4, ATHB17Δ113-C243S; experiment: SPR; details: chain copies: 2 (homodimer, inferred)
From the text: as §1, §2

ATHB17Δ113-C246S [20] = target: T6, ATHB17Δ113-C246S; experiment: SPR; details: chain copies: 2 (homodimer, inferred)
From the text: as §1, §2

[21] = target: T8, ATHB17Δ113-C200A-C243S-C246S; experiment: SPR
From the text: as §1, §2

ATHB17Δ113-F155L [22] = target: T11, ATHB17Δ113-F155L; experiment: SPR; details: chain copies: 2 (homodimer, inferred)
From the text: as §1, §2

[23] = target: T10, ATHB17Δ113-T196A-L203A-L210A-L217A-L224A; experiment: SPR; leucine zipper mutant
ATHB17Δ113 [24] = target: T1, ATHB17Δ113; experiment: SPR; Biacore 2000; unit from p118; details: chain copies: 2 (homodimer, inferred)
[25] = target: T9, ATHB17Δ113-V182A-Q185A-N186A; experiment: SPR; loses interaction with BS1
From the text: as §1, §2

ATHB17Δ113-R190K [26] = target: T12, ATHB17Δ113-R190K; experiment: SPR; no significant change vs parent; details: chain copies: 2 (homodimer, inferred)
ATHB17Δ113-Δ138-195 [27] = target: T5, ATHB17Δ113-Δ138-195; experiment: SPR; homeodomain deletion; similar results stated
From the text: as §1, §2

B1: non consensus oligo (random DNA) (dsDNA)
DNA 1: CAGCTCAGTCTGACGGC
DNA 2: GCCGTCAGACTGAGCTG
binding result (ATHB17Δ113 [1]): no binding
binding result (ATHB17Δ113-Δ194-224 [2]): no binding
binding result (ATHB17Δ113-C243S-C246S [3]): no binding
binding result (ATHB17Δ113-C243S [4]): no binding
binding result (ATHB17Δ113-Δ138-195 [5]): no binding
binding result (ATHB17Δ113-C246S [6]): no binding
binding result (ATHB17Δ113-W183F [7]): no binding
binding result [8]: no binding
binding result [9]: no binding
binding result [10]: no binding
binding result (ATHB17Δ113-F155L [11]): no binding

B2: Class II oligo (BS2) (dsDNA)
DNA 1: CAGACAATCATTGCGGC
DNA 2: GCCGCAATGATTGTCTG
Kd (ATHB17Δ113-W183F [12]): 11000 nM
binding result [13]: no binding
binding result (ATHB17Δ113-Δ138-195 [14]): no binding
Kd (ATHB17Δ113 [15]): 20.4 nM
Kd (ATHB17Δ113-R190K [16]): 68.2 nM
Kd (ATHB17Δ113-Δ194-224 [17]): 4800 nM
Kd (ATHB17Δ113-C243S-C246S [18]): 41.1 nM
Kd (ATHB17Δ113-C243S [19]): 82.2 nM
Kd (ATHB17Δ113-C246S [20]): 63.6 nM
binding result [21]: no binding
Kd (ATHB17Δ113-F155L [22]): 3630 nM
binding result [23]: no binding

B3: Class I oligo (BS1) (dsDNA)
DNA 1: CAGACAATTATTGCGGC
DNA 2: GCCGCAATAATTGTCTG
Kd (ATHB17Δ113 [24]): 37.7 nM
binding result [25]: no binding
Kd (ATHB17Δ113-R190K [26]): 25.7 nM
binding result (ATHB17Δ113-Δ138-195 [27]): no binding
